Source: patent publication US20060051363A1, “Protein inducing cell death of helicobacter pylori” (JAPAN SCIENCE AND TECHNOLOGY AGENCY, priority 2002, published 2006)

How the values were obtained:
[1] = molecular target: T1, subunit 2 of the apoptosis-inducing protein from Helicobacter pylori (amino acids 380-567 of the protein … (Helicobacter pylori strain 26695)); assay: native PAGE under acid condition (single band), then 2D SDS-PAGE (two bands, about 40 kDa and 22 kDa)
T1 construct: Purified from the membrane fraction of H. pylori strain 26695; this follows from the lengths; also called about 22 kDa band
T1 chain: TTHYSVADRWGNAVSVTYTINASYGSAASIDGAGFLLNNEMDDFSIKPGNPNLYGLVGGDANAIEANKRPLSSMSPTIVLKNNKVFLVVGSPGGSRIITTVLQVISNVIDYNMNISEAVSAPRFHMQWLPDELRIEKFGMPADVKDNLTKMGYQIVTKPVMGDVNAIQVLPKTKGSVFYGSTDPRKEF

[2] = test system: human gastric adenocarcinoma cell line AGS; assay: cytotoxic effect assayed using WST-1 kit in AGS cells; format: cell-based; conditions: FIG. 7
Procedure: In this example, the apoptosis-inducing activity was measured as the cytotoxic activity in human gastric adenocarcinoma cell line AGS (ATCC CRL 1739) using Quick Cell Proliferation Assay Kit (Cat.BV-K301-10) (BioVision). The cell viability (surviving cell), from which an apoptosis-inducing activity is calculated, is based on the activity of intracellular mitochondrial dehydrogenase activity as a marker enzyme and is measured by the absorbance at 450 nm after 1 hr incubation at 37° C. with the substrate of the enzyme. The absorbance indicates the cell viability. The more cytotoxic, the less the absorbance is according to the mesurement.
(§1) In this example, the apoptosis-inducing activity of the protein purified in example 1 was examined in human gastric adenocarcinoma cell line AGS (ATCC CRL 1739), in human gastric carcinoma cell line KATO III (Human Science Research Resources Bank, Cat No. JCRB0611 (ATCC, HTB-103)) and in human uterine cervix cancer-derived HeLa cell (Human Science Research Resources Bank, Cat No. JCRB9004).
(§2) The cytotoxic effect was assayed using WST-1 kit (Roche Diagnotics).

[3] = test system: human gastric carcinoma cell line KATO III; assay: cytotoxic effect assayed using WST-1 kit in KATO III cells; format: cell-based; conditions: FIG. 8
Procedure: as §1, §2

[4] = test system: human uterine cervix cancer-derived HeLa cell; assay: cytotoxic effect assayed using WST-1 kit in HeLa cells; format: cell-based; conditions: FIG. 7
Procedure: as §1, §2

AGS cells = assay: induction of apoptosis in AGS cells (Hoechst 33342 nuclear staining, fluorescence microscopy); format: cell-based, human; conditions: Hoechst 33342 staining, FIG. 9
From the text: Also, the induction of apoptosis in AGS cells by the protein was examined: Trypsinized apoptotic and control cells were collected and stained with a fluorescent dye (Hoechst 33342), which stains cellular nuclei. Since the nuclei of apoptotic cells are highly condensed and fragmented, apoptotic cells are easily differentiated from control cells under fluorescence microscopy. Cells were put on a slide glass, the number of apoptotic cells and control cells were counted and the percentage of apoptotic cells in total cells was enumerated. At least total 500 cells were counted for each experiment.

| Molecule | binding result [1] | cytotoxic activity [2] | cytotoxic activity [3] | cytotoxic activity [4] | induction of apoptosis (percentage of apoptotic cells in total cells) (AGS cells) |
| --- | --- | --- | --- | --- | --- |
| subunit 1 of the apoptosis-inducing protein from Helicobacter pylori (amino acids 27-379 of the protein encoded by the HP1118 gamma-glutamyl transferase gene) (enzyme, Purified from the membrane fraction of H. pylori strain 26695; this follows from the lengths; also called about 40 kDa band) ASYPPIKNTKVGLALSSHPLASEIGQKVLEEGGNAIDAAVAIGFALAVVHPAAGNIGGGGFAVIHLANGENVALDFREKAPLKATKNMFLDKQGNVVPKLSEDGYLAAGVPGTVAGMEAMLKKYGTKKLSQLIDPAIKLAENGYAISQRQAETLKEARERFLKYSSSKKYFFKKGHLDYQEGDLFVQKDLAKTLNQIKTLGAKGFYQGQVAELIEKDMKKNGGIITKEDLASYNVKWRKPVVGSYRGYKIISMSPPSSGGTHLIQILNVMENADLSALGYGASKNIHIAAEAMRQAYADRSVYMGDADFVSVPVDKLINKAYAKKIFDTIQPDTVTPSSQIKPGMGQLHEGSN | binds |  |  |  |  |
| protein purified in example 1: Helicobacter pylori protein complex of two subunits (SEQ ID NO: 1 and 2; about 40 kDa and 22 kDa) encoded by the HP1118 gene (protein, Helicobacter Pylori, about 40 kDa and 22 kDa) encoded by the HP1118 gene) chain 1: ASYPPIKNTKVGLALSSHPLASEIGQKVLEEGGNAIDAAVAIGFALAVVHPAAGNIGGGGFAVIHLANGENVALDFREKAPLKATKNMFLDKQGNVVPKLSEDGYLAAGVPGTVAGMEAMLKKYGTKKLSQLIDPAIKLAENGYAISQRQAETLKEARERFLKYSSSKKYFFKKGHLDYQEGDLFVQKDLAKTLNQIKTLGAKGFYQGQVAELIEKDMKKNGGIITKEDLASYNVKWRKPVVGSYRGYKIISMSPPSSGGTHLIQILNVMENADLSALGYGASKNIHIAAEAMRQAYADRSVYMGDADFVSVPVDKLINKAYAKKIFDTIQPDTVTPSSQIKPGMGQLHEGSN chain 2: TTHYSVADRWGNAVSVTYTINASYGSAASIDGAGFLLNNEMDDFSIKPGNPNLYGLVGGDANAIEANKRPLSSMSPTIVLKNNKVFLVVGSPGGSRIITTVLQVISNVIDYNMNISEAVSAPRFHMQWLPDELRIEKFGMPADVKDNLTKMGYQIVTKPVMGDVNAIQVLPKTKGSVFYGSTDPRKEF |  | has the cytotoxic activity | has the cytotoxic activity | has the cytotoxic activity | mainly ascribed to apoptosis |
